Experimental findings from US20240343811A1 (SHANDONG SIMCERE BIOPHARMACUTICAL, published 2024) are described below.

Assay [1] addresses T1, Human CD16a (158F)-his (human).
T1 construct: entry holds ECD, AVI tag, linker and His tag
Briefly: SPR (Biacore), antibody captured on Protein A. Here is the method: (§1) A sample buffer and a running buffer were HBS-EP+ (10 mM HEPES, 150 mM NaCl, 3 mM EDTA and 0.05% surfactant P20) (GE Healthcare; BR-1006-69). The flow-through cell was set to 25° C. The sample block was set to 16° C. Both were pretreated with the running buffer. In each cycle, an antibody to be detected was first captured with a Protein A chip, and then a single concentration of CD16 antigen protein was injected. The binding and dissociation processes of the antibody and the antigen protein were recorded, and finally Glycine pH 1.5 (GE Healthcare; BR-1003-54) was used to complete chip regeneration. Binding was measured by injecting different concentrations of recombinant human CD16-ECD his proteins in a solution for 240 s with a flow rate of 30 μL/min, wherein a total of 5 concentrations were prepared by using 200 nM as a starting concentration (see the detailed results for the actual concentration in the test) and performing a 1:1 dilution. The dissociation phase was monitored for up to 600 s and was triggered by switching from a sample solution to a running buffer. The surface was regenerated by washing with a 10 mM glycine solution (pH 1.5) for 30 s at a flow rate of 30 μL/min. Bulk refractive index difference was corrected by subtracting the response obtained from the goat anti-human Fc surface. Blank injection was also subtracted (=double reference). For calculation of apparent KD and other kinetic parameters, Langmuir 1:1 model was used.
(In general: In SPR one partner is held on a chip, and binding of the other changes the refractive index at the surface.)

For assay [2], the target named is T2, human CD16b (NA1), full length, on FlpinCHO cells (human, UniProt O75015 17-200).
T2 construct: also called FlpinCHO-human CD16b (NA1)
T2 chain: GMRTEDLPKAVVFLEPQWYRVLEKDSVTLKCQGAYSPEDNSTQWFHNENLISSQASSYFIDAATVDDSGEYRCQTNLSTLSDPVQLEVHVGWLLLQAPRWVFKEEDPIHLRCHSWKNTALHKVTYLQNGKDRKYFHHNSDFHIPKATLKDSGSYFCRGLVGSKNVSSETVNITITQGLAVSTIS
The assay is described as follows: FACS on FlpinCHO cells. Here is the method:
(§2) The required cells were scale-up cultured in a T-75 cell culture flask to the logarithmic growth phase. The medium was aspirated, and the cells were washed twice with a PBS buffer and then digested with trypsin. After the digestion was terminated, the cells were washed twice with the PBS buffer. The cells were counted, and then the cell pellet was resuspended with a [PBS+2% (w/w) BSA] blocking solution to 2×10⁶ cells/ml, and added to a 96-well FACS reaction plate at 50 μl/well. […] 50 μl/well of the antibody to be detected was added at different concentrations, and incubated on ice for 1 hour. […] The mixture was centrifuged and washed 5 times with PBS, and FACS (FACS Canto II, purchased from BD Company) was used for detection and result analysis. Data analysis was performed by software (CellQuest) to obtain the mean fluorescence intensity (MFI) of the cells. Then, software (GraphPad Prism8) was used for analysis, data fitting and EC50 value calculation.
(§3) The binding of an antibody to be detected to FlpinCHO-human CD16b cells was detected according to the method of Example 3.1.

The target of assay [3] is T3, human CD16b (NA2), full length, on FlpinCHO cells (human, UniProt O75015 17-200).
T3 construct: also called FlpinCHO-human CD16b (NA2)
T3 chain: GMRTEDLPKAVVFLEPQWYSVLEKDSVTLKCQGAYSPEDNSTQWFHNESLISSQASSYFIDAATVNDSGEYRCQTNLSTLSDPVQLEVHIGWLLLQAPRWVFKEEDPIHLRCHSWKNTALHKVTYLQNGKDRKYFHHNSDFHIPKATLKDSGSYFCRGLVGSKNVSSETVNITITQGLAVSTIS
The assay is described as follows: FACS on FlpinCHO cells. Here is the method:
as §2, §3

The target of assay [4] is T4, human CD16a (158V), full length, on cells (human, UniProt P08637 17-254). Briefly: cell-based or functional assay.
Target sequence in this assay (P08637 17-254 F176V limits assumed): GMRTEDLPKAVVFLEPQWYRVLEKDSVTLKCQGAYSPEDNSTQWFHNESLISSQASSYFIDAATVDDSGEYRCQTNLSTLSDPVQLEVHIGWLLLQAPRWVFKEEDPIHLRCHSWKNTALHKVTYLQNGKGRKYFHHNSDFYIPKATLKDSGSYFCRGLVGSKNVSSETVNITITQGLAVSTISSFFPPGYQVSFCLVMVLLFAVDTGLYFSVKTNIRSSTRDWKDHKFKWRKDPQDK
Assay [5] deals with T4, human CD16a (158V), full length, on …. Briefly: FACS on FlpinCHO cells. As to the method: as §2
(§4) The binding of a humanized antibody to FlpinCHO-human CD16a cells was detected according to the method of Example 3.1.
Target sequence in this assay (P08637 17-254 F176V limits assumed): as above

In assay [6] the target is T5, human CD16a (158F), full length, on FlpinCHO cells (human, UniProt P08637 17-254). The assay is described as follows: FACS on FlpinCHO cells. Here is the method:
as §2, §4
Target sequence in this assay (P08637 17-254 limits assumed): as the sequence (P08637 17-254 F176V limits assumed) above, with V160F counted along it

The target in assay [7] is T4, human CD16a (158V), full length, on …. Briefly: FACS, biotinylated antibody, +10 mg/mL human immunoglobulin. Here is the method:
as §2, with “The” for “The required cells were scale-up cultured in a T-75 cell culture flask to the logarithmic growth phase. The”
(§5) An antibody to be detected was labeled in advance according to the instructions of a biotin labeling kit (EZ-Link™ NHS-PEG4 Biotinylation Kit, purchased from Thermofisher Scientific, catalog number: 21455). […] Detection was performed according to the method of Example 3.1, wherein the biotinylated antibody was detected with fluorescein APC-labeled Streptavidin (High Concentration) (purchased from Biolegend, catalog number: 405243).

In assay [8] the target is T5, human CD16a (158F), full length, on …. The assay is described as above. Here is the method:
as §2, with “The” for “The required cells were scale-up cultured in a T-75 cell culture flask to the logarithmic growth phase. The”
as §5

Assay [9] has as its target T4, human CD16a (158V), full length, on …. Briefly: cell-based or functional assay. This is another data set of the same source.
The target is the same in assay [10]. Briefly: FACS on FlpinCHO cells. Here is the method: as §2
This is another data set of the same source.

Assay [11] concerns the target T5, human CD16a (158F), full length, on …. The assay is described as follows: FACS on FlpinCHO cells. Here is the method:
as §2
This is another data set of the same source.

Assay [12] concerns the target T6, Human CD16b (NA1)-his (human).
T6 construct: entry holds ECD, linker, His tag and AVI tag
T6 chain: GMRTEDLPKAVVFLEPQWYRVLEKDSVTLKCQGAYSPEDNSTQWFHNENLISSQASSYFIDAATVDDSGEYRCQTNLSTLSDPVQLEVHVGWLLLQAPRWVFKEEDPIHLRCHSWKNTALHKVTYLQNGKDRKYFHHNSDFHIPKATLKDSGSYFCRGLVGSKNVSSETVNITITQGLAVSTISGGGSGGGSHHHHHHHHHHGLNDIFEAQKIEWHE
The assay is described as follows: SPR (Biacore), antibody captured on Protein A. Here is the method:
as §1

The target of assay [13] is T7, Human CD16a (158V)-his (human).
T7 construct: entry holds ECD, AVI tag, linker and His tag
Briefly: SPR (Biacore), antibody captured on Protein A. Here is the method: as §1

Assay [14] deals with T4, human CD16a (158V), full length, on …. Briefly: FACS, biotinylated antibody. Here is the method:
as §2, with “The” for “The required cells were scale-up cultured in a T-75 cell culture flask to the logarithmic growth phase. The”
as §5
On the technique in general: In flow cytometry, cells or beads pass a laser one at a time.

The target of assay [15] is T5, human CD16a (158F), full length, on …. Briefly: FACS, biotinylated antibody. Here is the method: as §2, with “The” for “The required cells were scale-up cultured in a T-75 cell culture flask to the logarithmic growth phase. The”
as §5

Assay [16] concerns the target T2, human CD16b (NA1), full length, on …. Briefly: FACS on FlpinCHO cells. Here is the method:
as §2, §3

Assay [17] deals with T3, human CD16b (NA2), full length, on …. The assay is described as follows: FACS on FlpinCHO cells. As to the method: as §2, §3

Where two headings read alike, the source gives them in different places.

B1: VHH06-06 humanized VHH-Fc antibody (Fc fusion)
chain: EVQLVESGGGVVQPGGSLRLSCAASGSTWTTYAVRWYRQAPGKQREWVAFISVDGSTNYADSVKGRFTVSRDNSKNTVYLQMNSLRAEDTADYICRVGGQYWGQGTMVTVSSEPKSSDKTHTCPPCPAPEEFGGPSVFLFPPKPKDTLMISRTPEVTCVVVAVSHEDPEVKFNWYVDGVEVHNAKTKPREEQYNSTYRVVSVLTVLHQDWLNGKEYKCKVSNKALPAPIEKTISKAKGQPREPQVYTLPPSREEMTKNQVSLTCLVKGFYPSDIAVEWESNGQPENNYKTTPPVLDSDGSFFLYSKLTVDKSRWQQGNVFSCSVMHEALHNHYTQKSLSLSPGK
As to B1, in [1], the affinity, expressed as Kd, was 24.6 nM; the koff (as a rule, the first-order rate constant of dissociation) stood at 0.00116 s⁻¹; the kon (usually the second-order rate constant of association) came out at 47100 M⁻¹ s⁻¹. Besides, in [2], the EC50 (usually the concentration at which the effect is half-maximal) was determined as 0.25 nM and the “Maximum mean fluorescence intensity” value worked out at 59800. Moreover, in [3], the “Maximum mean fluorescence intensity” value came out at 204 and the binding result is on record as “no binding (tested: 100 nM)”. Also, in [4], the “EC50, activation activity for Jurkat cell” value (shortened to “EC50, activation activity”) amounted to 0.01 nM and the Maximum fluorescence value turned out to be 167000. In addition, in [5], the 50% effective concentration (EC50) turned out to be 0.28 nM and the “Maximum mean fluorescence intensity” value was 8240. Further, in assay [6], the concentration giving a half-maximal response (EC50) was 0.3 nM and the “Maximum mean fluorescence intensity” value was found to be 8930.

B2: VHH06-07 humanized VHH-Fc antibody (Fc fusion)
chain: EVQLVESGGGVVQPGGSLRLSCAASGSTWTTYAVRWYRQAPGKQREWVAFISVDGSTNYADSVKGRFTISRDNSKNTVYLQMNSLRAEDTADYICRVGGQYWGQGTQVTVSSEPKSSDKTHTCPPCPAPEEFGGPSVFLFPPKPKDTLMISRTPEVTCVVVAVSHEDPEVKFNWYVDGVEVHNAKTKPREEQYNSTYRVVSVLTVLHQDWLNGKEYKCKVSNKALPAPIEKTISKAKGQPREPQVYTLPPSREEMTKNQVSLTCLVKGFYPSDIAVEWESNGQPENNYKTTPPVLDSDGSFFLYSKLTVDKSRWQQGNVFSCSVMHEALHNHYTQKSLSLSPGK
B2: in [1], the affinity, expressed as Kd, was 32.1 nM; the koff stood at 0.00139 s⁻¹; the kon amounted to 43100 M⁻¹ s⁻¹. For the same molecule, in assay [2], the EC50 came out at 0.33 nM and the “Maximum mean fluorescence intensity” value turned out to be 53500. Besides, in assay [3], the “Maximum mean fluorescence intensity” value amounted to 167 and the binding result is “no binding (tested: 100 nM)”. Also, in assay [4], the “EC50, activation activity” value was determined as 0.02 nM and the Maximum fluorescence value came to 173000. Also, in [5], the EC50 came out at 0.5 nM and the “Maximum mean fluorescence intensity” value stood at 8460. In assay [6], a half-maximal effect (EC50) was put at 0.5 nM and the “Maximum mean fluorescence intensity” value stood at 9160.

B3: VHH01 VHH-Fc antibody (Fc fusion)
chain: QVQLVESGGGLVQAGGSLRLSCVASRSTLTTYAVRWYRQAPGKQREWVAFISVDGNTNYPDSVKGRFIVSRDNAKNTVYLQMNSLKPEDTADYICRAGGQYWGQGTQVTVSSEPKSSDKTHTCPPCPAPEFEGGPSVFLFPPKPKDTLMISRTPEVTCVVVAVSHEDPEVKFNWYVDGVEVHNAKTKPREEQYNSTYRVVSVLTVLHQDWLNGKEYKCKVSNKALPAPIEKTISKAKGQPREPQVYTLPPSREEMTKNQVSLTCLVKGFYPSDIAVEWESNGQPENNYKTTPPVLDSDGSFFLYSKLTVDKSRWQQGNVFSCSVMHEALHNHYTQKSLSLSPGK
For B3, the EC50 is 1.15 nM in assay [7]; 1.21 nM in [8]; 0.47 nM in assay [10]; 0.91 nM in [11]; 0.47 nM in assay [14]; 0.56 nM in [15]. Also, the EC50 in [16] was found to be 0.85 nM. The “Maximum mean fluorescence intensity” value in assay [7] was determined as 9000; in [8], 6850; in [10], 5000; in [11] it was 4010; in assay [14], 6400; in assay [15], 4940. Further, the figures for the “Maximum mean fluorescence intensity” value in assay [16] and in assay [17] were 49700 and 95, respectively. In addition, the “EC50, activation activity” value in assay [9] is 0.09 nM. In assay [9], this molecule yielded a Maximum fluorescence value of 178000. Besides, the figures for the Kd in [12], in assay [1] and in [13] were 95.7 nM, 108 nM and 27 nM, respectively. In addition, the koff in assay [12] stood at 0.0485 s⁻¹; in assay [1] it was 0.00831 s⁻¹; in assay [13] it was 0.00373 s⁻¹. In addition, the kon in [12] came to 507000 M⁻¹ s⁻¹; in [1], 76600 M⁻¹ s⁻¹; in assay [13], 138000 M⁻¹ s⁻¹. In addition, in [17], the binding result was “no binding (tested: 100 nM)”.
